Results from patent publication US20250353911A1 (INHIBRX BIOSCIENCES, published 2025).

Key:
[1] = molecular target: T1, human FcRn/B2m heterodimer protein (human, UniProt P55899 24-297; P61769 21-119, limits assumed); test: ELISA on coated human FcRn/B2m heterodimer, pH 7.4, HRP detection antibody, A450
T1 construct: also called FcRn (ELISA)
Description: 96-well ELISA plates were coated with human FcRn/B2m heterodimer protein in PBS overnight at 4° C., washed with PBST and then blocked with 3% BSA in PBST for 1 h at RT. Serial dilutions of test articles were prepared in PBST pH 7.4 and added to the plates. Plates were incubated for 1 h at room temperature. After the incubation cells were washed in the PBST and then incubated for 1 h at room temperature with a horse radish peroxidase (HRP)-conjugated antibody detecting the polypeptides. Plates were washed with PBS-T followed by addition of TMB substrate and color allowed to develop. TMB substrate was stopped with an equal volume of stop solution (1M H₂SO₄). Absorbance at 450 nm was measured with a 96 well plate reader (Emax, Molecular Devices). All data were plotted and analyzed using GraphPad Prism analysis software.

[2] = molecular target: T2, human FcRn extracellular domain (ECD) fused to a transmembrane domain and an intracellular citrine, with … (human); test: flow cytometry, HEK 293 cells transiently expressing human FcRn ECD-TM-citrine and B2M, pH 6; blocked ligand: biotinylated human IgG at 1 µM, detected with streptavidin-AF647
T2 construct: also called human FcRn overexpressed on CHO cells; FcRn transfected CHO cells
T2 sequence (chain, as listed by the source limits assumed, chain 1 of 2): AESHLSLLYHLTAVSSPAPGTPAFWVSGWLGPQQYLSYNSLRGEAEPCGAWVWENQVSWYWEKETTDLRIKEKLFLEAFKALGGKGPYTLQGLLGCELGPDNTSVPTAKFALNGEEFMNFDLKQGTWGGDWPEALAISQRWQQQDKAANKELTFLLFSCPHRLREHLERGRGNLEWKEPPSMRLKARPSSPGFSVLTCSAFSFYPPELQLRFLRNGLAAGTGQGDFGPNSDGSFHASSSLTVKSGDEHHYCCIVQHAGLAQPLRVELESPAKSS
T2 sequence (b2m, as listed by the source limits assumed, chain 2 of 2): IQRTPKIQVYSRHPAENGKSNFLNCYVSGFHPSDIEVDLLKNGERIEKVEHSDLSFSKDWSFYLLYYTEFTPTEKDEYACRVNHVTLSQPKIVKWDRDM
Description: 50,000 transiently transfected HEK 293 cells were plated in 96-well plates and resuspended in 20 mM His, 150 mM NaCl, pH 6. Serial dilutions of test articles were prepared at 2× the final concentration in the buffer described above and added to the cell suspensions. Plates were incubated for 60 minutes at 4° C. […] Cells were then washed in the buffer described above and subsequently incubated for 30 minutes at 4° C. with a fluorescently labeled (AF647) streptavidin to detect IgG binding to FcRn. Binding of streptavidin to cells expressing FcRn (citrine positive) was measured after a final wash using an iQue Screener (Sartorius). The data were plotted and analyzed using GraphPad Prism analysis software.

[3] = molecular target: T3, Human serum albumin (HSA) (human, UniProt P02768 25-609); test: ELISA on coated human albumin, anti-human Fc HRP, A650, one site-total binding fit
T3 construct: also called human albumin; recombinant human albumin
T3 sequence (P02768 25-609): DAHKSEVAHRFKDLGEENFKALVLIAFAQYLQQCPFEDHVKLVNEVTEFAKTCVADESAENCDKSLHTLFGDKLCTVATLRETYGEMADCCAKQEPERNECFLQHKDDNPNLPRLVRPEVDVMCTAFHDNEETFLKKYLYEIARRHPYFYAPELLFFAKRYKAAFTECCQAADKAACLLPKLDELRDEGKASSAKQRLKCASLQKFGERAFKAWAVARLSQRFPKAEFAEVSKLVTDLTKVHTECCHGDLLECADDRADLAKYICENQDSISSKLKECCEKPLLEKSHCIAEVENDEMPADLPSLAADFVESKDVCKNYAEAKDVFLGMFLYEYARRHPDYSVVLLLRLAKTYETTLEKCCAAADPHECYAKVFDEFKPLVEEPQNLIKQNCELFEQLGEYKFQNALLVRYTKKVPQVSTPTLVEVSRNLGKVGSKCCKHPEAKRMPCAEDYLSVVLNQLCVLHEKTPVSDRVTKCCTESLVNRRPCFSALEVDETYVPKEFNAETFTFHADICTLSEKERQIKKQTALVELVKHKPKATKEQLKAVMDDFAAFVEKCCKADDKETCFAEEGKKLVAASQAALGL
Description: (§1) Medisorp plates were coated with albumin protein at 2 μg/ml, 50 μl/well at 4° C. overnight (human, murine, and rat albumin-Sigma, cynomolgus monkey albumin-Abcam). 1× Fish Gelatin (blocking agent, Bethyl Laboratories) was added to albumin-coated wells followed by a 1 hour incubation at RT. Titrations of sdAb fusion proteins (starting at 100 nM, across 1:3 or down 1:4) were added and incubated for 1 hour at RT. Plates were washed 3 times with 0.1% D-PBST, and then anti-human Fc HRP antibody (1:2000 in 0.1% D-PBST, Jackson) was added and incubated for 30 minutes at RT. Plates were washed 3 times with 0.1% D-PBST, and then TMB substrate was added. Absorbance at 650 nm was read on a plate reader (Molecular Devices) and data were plotted using equation one site-total binding (Model: Y=Bmax*X/(Kd+X)+NS*X+Background, GraphPad Prism).

[4] = molecular target: T4, Murine serum albumin (MSA) (mouse, UniProt P07724 25-608); test: ELISA on coated murine albumin, anti-human Fc HRP, A650, one site-total binding fit
T4 construct: Bought protein (Sigma); also called murine albumin; mouse albumin
Description: as §1

[5] = molecular target: T4, Murine serum albumin (MSA); test: as above; remark: listed apart in the source
Description: as §1

[6] = molecular target: T3, Human serum albumin (HSA); test: ELISA on coated human albumin, anti-human Fc HRP, A650, one site-total binding fit; remark: listed apart in the source
Description: as §1

Rat serum albumin (RSA) [7] = molecular target: T5, Rat serum albumin (RSA) (rat, UniProt P02770 25-608); test: ELISA on coated rat albumin, anti-human Fc HRP, A650, one site-total binding fit
T5 construct: Bought protein (Sigma); also called rat albumin
T5 sequence (P02770 25-608): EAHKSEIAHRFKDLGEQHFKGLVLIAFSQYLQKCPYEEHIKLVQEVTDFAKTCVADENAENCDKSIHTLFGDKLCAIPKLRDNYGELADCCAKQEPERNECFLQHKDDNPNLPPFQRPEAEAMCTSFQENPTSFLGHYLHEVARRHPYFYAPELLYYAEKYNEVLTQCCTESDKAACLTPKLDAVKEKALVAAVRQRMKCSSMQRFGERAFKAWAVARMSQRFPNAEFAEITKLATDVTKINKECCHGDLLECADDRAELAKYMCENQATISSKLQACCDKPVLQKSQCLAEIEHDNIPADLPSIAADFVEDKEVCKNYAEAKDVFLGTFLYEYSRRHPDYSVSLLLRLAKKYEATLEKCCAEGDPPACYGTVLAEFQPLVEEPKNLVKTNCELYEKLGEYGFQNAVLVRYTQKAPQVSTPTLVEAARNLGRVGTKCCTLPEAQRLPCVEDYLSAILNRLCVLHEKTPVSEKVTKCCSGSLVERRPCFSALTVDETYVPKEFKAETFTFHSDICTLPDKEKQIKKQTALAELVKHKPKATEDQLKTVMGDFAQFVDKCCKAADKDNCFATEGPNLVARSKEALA
Description: as §1

[8] = molecular target: T6, Cynomolgus monkey serum albumin (CSA) (cynomolgus monkey, UniProt A2V9Z4 25-608); test: ELISA on coated cynomolgus monkey albumin, anti-human Fc HRP, A650, one site-total binding fit
T6 construct: Bought protein (Abcam); also called cynomolgus monkey albumin
T6 sequence (A2V9Z4 25-608): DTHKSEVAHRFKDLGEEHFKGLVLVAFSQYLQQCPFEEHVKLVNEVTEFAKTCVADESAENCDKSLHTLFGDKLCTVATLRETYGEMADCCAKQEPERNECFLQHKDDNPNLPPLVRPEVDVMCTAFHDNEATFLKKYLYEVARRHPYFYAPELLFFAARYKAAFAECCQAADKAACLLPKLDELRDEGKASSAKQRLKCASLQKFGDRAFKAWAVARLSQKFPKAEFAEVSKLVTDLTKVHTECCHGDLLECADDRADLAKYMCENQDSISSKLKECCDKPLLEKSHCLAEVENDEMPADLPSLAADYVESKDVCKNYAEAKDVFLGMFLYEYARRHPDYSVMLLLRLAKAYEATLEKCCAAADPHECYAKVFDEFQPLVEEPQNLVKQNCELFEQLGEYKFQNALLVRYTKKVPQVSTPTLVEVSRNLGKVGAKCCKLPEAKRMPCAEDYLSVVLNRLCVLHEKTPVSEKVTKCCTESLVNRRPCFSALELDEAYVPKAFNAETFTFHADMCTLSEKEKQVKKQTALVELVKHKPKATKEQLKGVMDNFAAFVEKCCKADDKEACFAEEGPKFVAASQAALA
Description: as §1

Rat serum albumin (RSA) [9] = molecular target: T5, Rat serum albumin (RSA); test: ELISA on coated rat albumin, anti-human Fc HRP, A650, one site-total binding fit; remark: listed apart in the source
Description: as §1

[10] = molecular target: T7, Mouse Fc-tagged human albumin domain III (human, UniProt P02768 405-609, limits assumed); test: biolayer interferometry, mouse Fc-tagged human albumin domain III (10 ug/ml) on anti-mouse IgG Fc biosensor, pH 5
T7 construct: also called albumin domain 3 (mouse Fc tagged); albumin domain 3; not shown: mouse Fc tag
T7 sequence (P02768 405-609 limits assumed): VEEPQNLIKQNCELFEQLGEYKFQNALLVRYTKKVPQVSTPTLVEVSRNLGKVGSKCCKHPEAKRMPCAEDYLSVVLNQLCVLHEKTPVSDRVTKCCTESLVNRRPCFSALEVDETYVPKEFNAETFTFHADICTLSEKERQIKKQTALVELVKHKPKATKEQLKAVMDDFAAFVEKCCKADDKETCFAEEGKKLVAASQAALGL

[11] = molecular target: T6, Cynomolgus monkey serum albumin (CSA); test: ELISA on coated cynomolgus monkey albumin, anti-human Fc HRP, A650, one site-total binding fit; remark: listed apart in the source
Description: as §1

Rat serum albumin (RSA) [12] = molecular target: T5, Rat serum albumin (RSA); test: ELISA, albumin coated, sdAb fusion titrated, anti-human Fc HRP
Description: as §1

[13] = molecular target: T3, Human serum albumin (HSA); test: as above
Description: as §1

[14] = molecular target: T4, Murine serum albumin (MSA); test: as above
Description: as §1

[15] = molecular target: T6, Cynomolgus monkey serum albumin (CSA); test: as above
Description: as §1

[16] = molecular target: T2, human FcRn extracellular domain (ECD) …; test: flow cytometry, CHO cells transiently expressing human FcRn ECD-TM-citrine and B2M, pH 6, AF647 detection antibody
Description: (§2) Binding of anti-FcRn VHH polypeptides to human FcRn at neutral (7.4) or endosomal (6) pH was tested by flow cytometry using a CHO-based overexpression system or isolated human peripheral blood mononuclear cells (PBMC).
(§3) CHO cells were plated in 96-well plates at 50,000 cells per well and resuspended in PBS, pH 7.4 or a buffer containing 20 mM His, 150 mM NaCl, pH 6. Serial dilutions of test articles were prepared at 2× the final concentration in the buffers described above (pH 7.4 or pH 6) and added to the cell suspensions. Plates were incubated for 60 minutes at 4° C. After the incubation cells were washed in the respective buffer and then incubated for 30 minutes at 4° C. with a fluorescently labeled (AF647) antibody detecting the VHH polypeptides. Binding of the detection antibody to FcRn on transfected cells (citrine positive) was measured after a final wash using an iQue Screener (Sartorius).

[17] = molecular target: T8, human FcRn on primary human monocytes (PBMC) (human, UniProt P55899 24-365; P16213 21-119); test: flow cytometry, fixed and permeabilized human PBMC, gated monocytes, pH 6, AF647 detection antibody
T8 construct: Endogenous FcRn (with endogenous beta-2 microglobulin) in fixed and permeabilized human PBMC; also called FcRn-expressing human monocytes; FcRn on PBMC subpopulations
T8 sequence (P55899 24-365 limits assumed, chain 1 of 2): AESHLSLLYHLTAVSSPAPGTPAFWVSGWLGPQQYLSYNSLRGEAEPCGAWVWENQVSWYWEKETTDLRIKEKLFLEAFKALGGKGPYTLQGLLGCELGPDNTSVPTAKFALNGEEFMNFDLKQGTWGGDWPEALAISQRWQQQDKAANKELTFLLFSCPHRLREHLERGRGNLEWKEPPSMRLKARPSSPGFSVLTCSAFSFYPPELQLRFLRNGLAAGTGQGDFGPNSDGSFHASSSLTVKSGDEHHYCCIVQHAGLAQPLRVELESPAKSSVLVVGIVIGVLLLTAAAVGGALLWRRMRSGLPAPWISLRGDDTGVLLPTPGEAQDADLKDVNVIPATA
T8 sequence (P16213 21-119 limits assumed, chain 2 of 2): as the sequence (b2m, as listed by the source limits assumed, chain 2 of 2) above
Description: (§4) Isolated human PBMC were plated in 96-well plates at 120,000 cells per well and washed with PBS, pH 7.4. Cells were stained with Zombie Aqua to exclude dead cells and with specific fluorescently labeled antibodies against surface lineage markers (CD14, CD16, CD3, CD56, CD19 and HLA-DR) to allow gating on different PBMC subpopulations. After the surface marker staining, cells were fixed and permeabilized using a Foxp3/Transcription Factor Fixation/Permeabilization kit (eBioscience™) according to the manufacturer's recommended protocol. Cells were then resuspended in the buffers described above to generate pH 7.4 or pH 6 conditions and test article staining was carried out as described for CHO cells. After the final wash, binding to FcRn on PBMC subpopulations (Monocytes, B cells or T cells) was measured on a Novocyte-Quanteon Flow Cytometer (Agilent).

[18] = molecular target: T3, Human serum albumin (HSA); test: ELISA on coated human albumin, pH 7.4, HRP detection antibody, A450
Description: (§5) 96-well ELISA plates were coated with albumin protein in PBS overnight at 4° C., washed with PBS-T and then blocked with 5% milk powder in PBS-T for 1 h at room temperature. Serial dilutions of test articles were prepared in PBS pH 7.4 or a buffer containing 20 mM His, 150 mM NaCl, pH 5.5 and added to the plates. Plates were incubated for 1 h at room temperature. After the incubation cells were washed in the respective buffer and then incubated for 30 min at room temperature with a HRP-conjugated antibody detecting the polypeptides. Plates were washed in their respective buffers and TMB substrate was added and color allowed to develop. TMB substrate was stopped with an equal volume of stop solution (1M H₂SO₄). Absorbance at 450 nm was measured with a 96 well plate reader.

[19] = molecular target: T2, human FcRn extracellular domain (ECD) …; test: flow cytometry, CHO cells transiently expressing human FcRn ECD-TM-citrine and B2M, pH 7.4, AF647 detection antibody
Description: as §2, §3

[20] = molecular target: T3, Human serum albumin (HSA); test: ELISA on coated human albumin, pH 5.5, HRP detection antibody, A450
Description: as §5

[21] = molecular target: T2, human FcRn extracellular domain (ECD) …; test: flow cytometry, CHO cells transiently expressing human FcRn ECD-TM-citrine and B2M, pH 7.4, AF647 detection antibody; remark: listed apart in the source
Description: as §2, §3

[22] = molecular target: T8, human FcRn on primary human monocytes …; test: flow cytometry, fixed and permeabilized human PBMC, gated monocytes, pH 7.4, AF647 detection antibody
Description: as §4

[23] = molecular target: T3, Human serum albumin (HSA); test: ELISA on coated human albumin, pH 5.5, HRP detection antibody, A450; remark: listed apart in the source
Description: as §5

[24] = molecular target: T2, human FcRn extracellular domain (ECD) …; test: flow cytometry, CHO cells transiently expressing human FcRn ECD-TM-citrine and B2M, pH 6, AF647 detection antibody; remark: listed apart in the source
Description: as §2, §3

T1 sequence (P55899 24-297 limits assumed, chain 1 of 2): as the sequence (chain, as listed by the source limits assumed, chain 1 of 2) above
T1 sequence (P61769 21-119 limits assumed, chain 2 of 2): as the sequence (b2m, as listed by the source limits assumed, chain 2 of 2) above

B1: cx11385 (B10a.v1 VHH x B10a.v1 VHH x hz4A01v51 VHH) (bispecific antibody)
chain: EVQLLESGGGEVQPGGSLRLSCTASGSIANVDMMAWHRQAPGKQREPIAVINDGGSTSYADSVKGRFTISRDNAKNTLYLQMSSLRAEDTAVYYCNTATWRGGERYADWGQGTLVTVKPGSGGGSEVQLLESGGGEVQPGGSLRLSCTASGSIANVDMMAWHRQAPGKQREPIAVINDGGSTSYADSVKGRFTISRDNAKNTLYLQMSSLRAEDTAVYYCNTATWRGGERYADWGQGTLVTVKPGSGGGSEVQLVESGGGEVQPGGSLRLSCAASGFTFSTSGMVWVRQAPGKGLEWVSTISDDARITVYAESVKGRFTISRDNAKNTVYLQMNSLRAEDTAVYYCATYRAGSRIGSYEDYYRGQGTLVTVKPGG
EC50 (read off the curve) [1]: ~0.07 nM
IC50 (read off the curve) [2]: ~3 nM

B2: 4A01-NNT-hFc (Fc fusion)
chain: QVQLQESGGGLVQPGGSLRLSCAASGFAFSTSGMVWVRQATGKGLEWVSTISDDSRIIRYADSVNGRFTISRDNAENTLYLLMNSLKPEDTAVYYCATYRAGSRIGSYEDYYRGQGTQVTVSSGGPSVFLFPPKPKDTLMISRTPEVTCVVVDVSHEDPEVKFNWYVDGVEVHNAKTKPREEQYNSTYRVVSVLTVLHQDWLNGKEYKCKVSNKALPAPIEKTISKAKGQPREPQVYTLPPSRDELTKNQVNLTCLVKGFYPSDIAVEWESNGQPENNYKTTPPVLDSDGSFFLNSTLTVDKSRWQQGNVFSCSVMHEALHNHYTQKSLSLSPG
notes: Monomeric sdAb-Fc fusion (Fc S364N, Y407N, K409T = NNT); also called 1m4A01; anti-albumin sdAb 4A01
Kd [3]: 0.171 nM
Kd [4]: 0.193 nM
Bmax [5]: 1.26 A650
Kd [5]: 0.114 nM
Bmax [6]: 1.34 A650
Kd [6]: 0.105 nM
Bmax (Rat serum albumin (RSA) [7]): 1.24 A650
Kd (Rat serum albumin (RSA) [7]): 0.144 nM
Bmax [8]: 1.27 A650
Kd [8]: 0.113 nM
Kd (Rat serum albumin (RSA) [9]): 0.182 nM
binding result [10]: no binding
Kd [11]: 0.162 nM

B3: cx5009 (hz4A01v51-NNT-hFc) (Fc fusion)
chain: EVQLVESGGGEVQPGGSLRLSCAASGFTFSTSGMVWVRQAPGKGLEWVSTISDDARITVYAESVKGRFTISRDNAKNTVYLQMNSLRAEDTAVYYCATYRAGSRIGSYEDYYRGQGTLVTVKPGGGGPSVFLFPPKPKDTLMISRTPEVTCVVVDVSHEDPEVKFNWYVDGVEVHNAKTKPREEQYNSTYRVVSVLTVLHQDWLNGKEYKCKVSNKALPAPIEKTISKAKGQPREPQVYTLPPSRDELTKNQVNLTCLVKGFYPSDIAVEWESNGQPENNYKTTPPVLDSDGSFFLNSTLTVDKSRWQQGNVFSCSVMHEALHNHYTQKSLSLSPGSGGGGSGGGGS
notes: also called humanized hz4A01v51; hx4A01v51
Kd [3]: 0.195 nM
Kd [4]: 0.207 nM
Kd (Rat serum albumin (RSA) [12]): < 0.3 nM
maximal binding (Rat serum albumin (RSA) [12]): > 90%
Kd [13]: < 0.3 nM
maximal binding [13]: > 90%
Kd [14]: < 0.3 nM
maximal binding [14]: > 90%
Kd [15]: < 0.3 nM
maximal binding [15]: > 90%
Kd (Rat serum albumin (RSA) [9]): 0.234 nM
Kd [11]: 0.189 nM

B4: cx11558 (B10a.v2.1 VHH x hz4A01v51 VHH) (bispecific antibody)
chain: EVQLLESGGGEVQPGGSLRLSCAASGSIANVDLMAWHRQAPGKQREPIAVINDAGSTYYAESVKGRFTISRDNAKNTLYLQMNSLRAEDTAVYYCNTATWRGGERYADWGQGTLVTVKPGSGGGSEVQLVESGGGEVQPGGSLRLSCAASGFTFSTSGMVWVRQAPGKGLEWVSTISDDARITVYAESVKGRFTISRDNAKNTVYLQMNSLRAEDTAVYYCATYRAGSRIGSYEDYYRGQGTLVTVKPGG
EC50 (read off the curve) [16]: ~0.4 nM
EC50 (read off the curve) [17]: ~5 nM
EC50 (read off the curve) [18]: ~0.3 nM
EC50 (read off the curve) [19]: ~0.5 nM
EC50 (read off the curve) [20]: ~0.06 nM
EC50 (read off the curve) [21]: ~0.5 nM
EC50 (read off the curve) [22]: ~4 nM
EC50 (read off the curve) [23]: ~0.06 nM
EC50 (read off the curve) [24]: ~0.4 nM
